{
  "source": "patent US20120213699A1",
  "about": "(BOARD OF TRUSTEES OF THE UNIVERSITY OF ILLINOIS, published 2012)",
  "binders": {"B1": {"name": "scFv 9B9 expressed on the phage surface (phages with the λ fragment) (scFv)", "scFv": "QVQLKESGPGLVAPSQSLSITCTVSGFSLTTYGVHWVRQPPGKGLEWLGVIWGGGNTNYNSALMSRLNITKDNSKRQVFLKMNSLQADDTGMYYCARGWDSWGQGTTLTVSSAKTTPPKLEEGEFSEARVQAVVTQESALTTSPGETVTLTCRSSTGAVTTNNYANWVQENPDHLFTGLIDGTNTRSPGVPARFSGSLIGDKAALTITGAQTEDEAIYFCALWYSNHWVFGGGTKLTVLGQ", "notes": "also called scFv 9B9 phages; 9B9 scFv phages; not shown: phage coat protein fusion partner from phagemid pSEX 81"}},
  "biological_target": "T1, BSA (UniProt P02769 25-607)",
  "T1 construct": "Negative control coating; also called bovine serum albumin",
  "T1 sequence (P02769 25-607 limits assumed)": "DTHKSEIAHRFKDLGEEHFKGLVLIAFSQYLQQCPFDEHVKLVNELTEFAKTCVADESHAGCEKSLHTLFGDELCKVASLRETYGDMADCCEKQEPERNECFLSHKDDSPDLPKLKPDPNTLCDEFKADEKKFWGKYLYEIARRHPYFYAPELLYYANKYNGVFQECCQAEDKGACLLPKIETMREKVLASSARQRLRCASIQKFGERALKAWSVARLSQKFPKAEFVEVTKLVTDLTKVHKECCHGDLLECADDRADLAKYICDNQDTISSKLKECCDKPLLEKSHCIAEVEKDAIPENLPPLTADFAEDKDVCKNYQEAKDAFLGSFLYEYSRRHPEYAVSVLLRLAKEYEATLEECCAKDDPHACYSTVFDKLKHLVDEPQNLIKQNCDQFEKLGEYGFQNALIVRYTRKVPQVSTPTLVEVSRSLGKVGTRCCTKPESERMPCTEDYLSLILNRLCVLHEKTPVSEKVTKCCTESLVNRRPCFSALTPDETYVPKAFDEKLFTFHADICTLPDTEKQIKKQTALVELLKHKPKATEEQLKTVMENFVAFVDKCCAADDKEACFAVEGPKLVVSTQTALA",
  "assay": "phage ELISA on coated plates, anti-M13 peroxidase",
  "data": [
    {"binder": "B1", "values": [
      {"measurement": "binding result", "result": "no binding (tested: 5 µg/ml (coating))"}
    ]}
  ]
}
